In assay [1] the target is T1, Human-TNFR2-His (manufacturer: SINO, CAT: 10417-H08H) (human, UniProt P20333 23-257).
T1 construct: Bought protein; also called human TNFR2 protein; TNFR2 protein; not shown: His tag
T1 sequence (looked up): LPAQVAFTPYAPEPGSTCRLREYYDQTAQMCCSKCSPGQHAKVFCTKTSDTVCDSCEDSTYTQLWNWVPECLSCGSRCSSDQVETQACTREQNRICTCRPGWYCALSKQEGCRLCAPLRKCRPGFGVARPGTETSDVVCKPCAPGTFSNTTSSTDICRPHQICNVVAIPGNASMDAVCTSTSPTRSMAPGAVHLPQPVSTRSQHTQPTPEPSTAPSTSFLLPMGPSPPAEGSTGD
The experiment in a line: BLI, antibody on AHC sensor, 100 nM human-TNFR2-His in solution. The method, then:
The AHC sensor was soaked in 0.02% PBST (0.02% Tween 20, pH 7.4, 1×PBS) as a buffer for 600 s to remove the sucrose covering the sensor surface. The AHC sensor was equilibrated with 0.02% PBST (0.02% Tween 20, pH 7.4, 1×PBS) as a buffer for 60 s, the antibody in the sample plate was solidified for 300 s, and the secondary equilibration buffer was used for 180 s. 100 nM human-TNFR2-His (manufacturer: SINO, CAT: 10417-H08H, LOT: LC12SE2902) protein was bound to the antibody for 300 s and then dissociated for 600 s. After dissociation, 10 mM glycine (pH 2.0) was used as a regeneration buffer for 30 s. The sensor was regenerated with 10 mM glycine (pH 2.0).
In general terms: BLI is a label-free optical method that tracks binding on a fibre tip over time.

Assay [2] has as its target T1, Human-TNFR2-His (manufacturer: SINO, …). The experiment in a line: ELISA: Human-TNFR2-His coated (0.3 µg/mL), antibody titrated, goat anti-human IgG Fc detection, OD450 (Example 10). The method, then:
(§1) Human-TNFR2-His (manufacturer: SINO, CAT: 10417-H08H, LOT: LC12SE2902) was diluted to 0.3 μg/mL with a coating solution (1×PBS, pH7.4), and coated into a 96-well ELISA plate at 100 μL/well overnight at 4° C. The coating solution was poured off. Each well was washed with 1×PBST at 300 μL, washed 4 times with a plate washer, and patted dry on a flat paper. It was blocked with 3% skim milk powder at 300 μL/well, and incubated at 37° C. for 1 h. The blocking solution was poured off, washed 4 times with a plate washer, and patted dry on a flat paper. Negative control and positive control were set up. […] The positive control and antibody were diluted to 10 μg/mL with 3% skim milk powder as the starting concentration, and then diluted by 3-fold gradient (11 gradients in total). A blank well was set up and only the diluent was added. It was incubated at 37° C. for 1 h at 100 μL/well. The liquid in the well was discarded, washed 4 times with a plate washer, and patted dry on a flat paper. Goat anti-human IgG Fc was diluted with 3% skim milk powder at 1:20000, and incubated at 37° C. for 1 h at 100 μL/well. It was washed 6 times with a plate washer, and patted dry on a flat paper. TMB color developing solution was added at 100 μL/well, and wrapped with aluminum foil. Color development was performed at 37° C. in the dark for 8 min. […] Readings were taken at 450 nm on an ELISA reader.
Background: ELISA stands for enzyme-linked immunosorbent assay.

Assay [3] shares this target. Described as above. How it is done: as §1
The source holds these as a separate data set.

The target in assay [4] is T2, Human-B7H3 Fc (manufacturer: Acro, CAT: B73-H5253) (human, UniProt Q5ZPR3-2 29-245).
T2 construct: Bought protein; not shown: Fc
T2 sequence (looked up): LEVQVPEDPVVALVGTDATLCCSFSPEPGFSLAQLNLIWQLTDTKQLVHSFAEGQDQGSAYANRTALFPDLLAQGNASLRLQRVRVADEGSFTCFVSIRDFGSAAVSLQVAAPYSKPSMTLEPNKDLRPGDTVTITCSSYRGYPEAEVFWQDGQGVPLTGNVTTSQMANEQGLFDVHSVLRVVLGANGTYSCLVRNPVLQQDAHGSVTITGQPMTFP
The experiment in a line: bridging ELISA: Human-B7H3 Fc coated (0.5 µg/mL), antibody titrated, then Human-TNFR2-His (0.5 µg/mL), HRP-labeled anti-His detection, OD450 (Example 4); half-maximal concentration of the bridging signal. The method, then:
Human-B7H3 Fc (manufacturer: Acro, CAT: B73-H5253, LOT: 2053b-201XF1-UD) was diluted to 0.5 μg/mL with a coating solution (1×PBS, pH7.4) and coated into a 96-well ELISA plate at 100 μL/well at 4° C. overnight. The coating solution was poured off. Each well was washed with 1×PBST at 300 μL, washed 4 times with a plate washer, and patted dry on a flat paper. It was blocked with 3% skim milk powder at 300 μL/well, and incubated at 37° C. for 1 h. The blocking solution was poured off, washed 4 times with a plate washer, and patted dry on a flat paper. […] Starting at 300 nM, which was used as the initial concentration for 3-fold dilution, a total of 8 gradients were diluted, and a blank well was set up, and only diluent was added. It was incubated at 37° C. for 1 h at 100 μL/well. The liquid in the well was discarded, washed 4 times with a plate washer, and patted dry on a flat paper. Human-TNFR2-His (manufacturer: Sino, CAT: 10417-H08H, LOT: LC12SE2902) was diluted to 0.5 μg/mL, 100 μL was added to each well, and incubated at room temperature for 1 h. The plate was washed 3 times with PBST, and then the HRP-labeled his antibody was diluted with sample diluent at 1:10000, 100 μL was added to each well, and incubated at room temperature for 1 h. It was washed 6 times with a plate washer, and patted dry on a flat paper. […] Readings were taken at 450 nm on an ELISA reader.

For assay [5], the target named is T3, Human-B7H3 His (manufacturer: Acro, CAT: TB73-H52E2) (human, UniProt Q5ZPR3-2 29-245).
T3 construct: also called human B7H3 protein; B7H3 protein; not shown: His tag
T3 sequence (looked up): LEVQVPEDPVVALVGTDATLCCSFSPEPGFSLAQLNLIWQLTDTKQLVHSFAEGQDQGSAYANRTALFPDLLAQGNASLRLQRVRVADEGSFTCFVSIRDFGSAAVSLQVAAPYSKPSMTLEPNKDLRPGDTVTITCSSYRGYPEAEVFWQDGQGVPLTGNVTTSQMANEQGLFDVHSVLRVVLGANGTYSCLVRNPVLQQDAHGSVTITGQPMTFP
The experiment in a line: ELISA: Human-B7H3 His coated (0.3 µg/mL), antibody titrated, goat anti-human IgG Fc detection, OD450 (Example 3). How it is done:
Human-B7H3 His (manufacturer: Acro, CAT: TB73-H52E2, LOT: 2052-21AXF1-YS) was diluted to 0.3 μg/mL with a coating solution (1×PBS, pH7.4), and coated into a 96-well ELISA plate at 100 μL/well overnight at 4° C. The coating solution was poured off. Each well was washed with 1×PBST at 300 μL, washed 4 times with a plate washer, and patted dry on a flat paper. It was blocked with 3% skim milk powder at 300 μL/well, and incubated at 37° C. for 1 h. The blocking solution was poured off, washed 4 times with a plate washer, and patted dry on a flat paper. Negative control and positive control were set up. […] The variable region of the antibody sequence of the positive control consists of SEQ ID NO: 1 and SEQ ID NO: 5, with the constant region of human IgG1 added (SEQ ID NO: 85 and SEQ ID NO: 86). The positive control and antibody were diluted to 10 μg/mL with 3% skim milk powder as the starting concentration, and then diluted by 3-fold gradient (11 gradients in total). A blank well was set up and only the diluent was added. It was incubated at 37° C. for 1 h at 100 μL/well. The liquid in the well was discarded, washed 4 times with a plate washer, and patted dry on a flat paper. Goat anti-human IgG Fc was diluted with 3% skim milk powder at 1:20000, and incubated at 37° C. for 1 h at 100 μL/well. It was washed 6 times with a plate washer, and patted dry on a flat paper. TMB color developing solution was added at 100 μL/well, and wrapped with aluminum foil. Color development was performed at 37° C. in the dark for 8 min. Termination solution 1M HCl was added to terminate the color development reaction at 100 μL/well. Readings were taken at 450 nm on an ELISA reader.

In assay [6] the target is T3, Human-B7H3 His (manufacturer: Acro, …). The experiment in a line: BLI, antibody on AHC sensor, 100 nM His-tagged protein (Acro TB73-H52E2) in solution.
The target of assay [7] is T4, human CD24 on MCF-7 tumor cells (human, UniProt P25063 27-59).
T4 construct: whole, on cells; also called CD24 protein; MCF-7 tumor cells with high expression of human CD24
T4 chain (looked up): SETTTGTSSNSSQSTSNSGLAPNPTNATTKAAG
The experiment in a line: flow cytometry on MCF-7 cells, 150 nM antibody, anti-human IgG Fc detection. The method, then: 100 μL of dilution was added to the blank control group, and 100 μL of fluorescent secondary antibody dilution was added to the rest of the sample groups respectively. After incubation for 0.5 h at room temperature and 4° C. protected from light, PBS was added to wash and centrifuged (3000 rpm, 3 min) twice. After discarding the supernatant, 80 μL of the dilution was added and resuspended.
Background: A flow cytometer gives signals particle by particle.

This is an account of results in patent US20260055188A1 (SHENGHE CHINA BIOPHARMACEUTICAL, published 2026).

Read-outs that look alike come from different tables or passages of the source.

B1: anti-TNFR2 control antibody (variable region SEQ ID NO: 83 and SEQ ID NO: 84, constant region of human IgG1 SEQ ID NO: 85 and SEQ ID NO: 86) (antibody, V domains shown)
VH: EVQLVQSGAEVKKPGATVKISCKVSGYSITDYLLHWVQQAPGKGLEWMGWIDPEDAKTKYGQKFQSRVTITADTSTDTAYMELSSLRSEDTAVYYCAANSGTGTMDAWGQGTLVTVSS
VL: DIVMTQSPATLSVSPGERATLSCKASQNVGSNVDWYQQKPGQSPRVLIYKASIRYTGIPARFSGSGSGTEFTLTISILQSEDFAVYFCMQSKSYPITFGQGTKLEIKR
notes: also called Positive control 1
With B1, in assay [1], binding was characterised by a dissociation constant (Kd) of 324 pM, the koff turned out to be 0.000127 s⁻¹ and the on-rate constant (kon) came out at 391000 M⁻¹ s⁻¹. For the same molecule, the “EC50 (read off the curve)” value in assay [2] is around 30 pM. In assay [3], the “EC50 (read off the curve)” value was around 30 pM.

B2: TB-C1 (bispecific antibody, human IgG1, kappa)
light: DIVMTQSPATLSVTPGDRVSLSCRASQSISDYLHWYQQKSHESPRLLIKYASQSISGIPSRFSGSGSGSDFTLSINSVEPEDVGVYYCQNGHSFPLTFGAGTKLELKRTVAAPSVFIFPPSDEQLKSGTASVVCLLNNFYPREAKVQWKVDNALQSGNSQESVTEQDSKDSTYSLSSTLTLSKADYEKHKVYACEVTHQGLSSPVTKSFNRGEC
heavy: not shown
notes: also called antibody TB-C1
B2: the Kd was 2890 pM in assay [1] and 159000 pM in assay [6]. Further, the koff in assay [1] was 0.000665 s⁻¹; in assay [6], 0.00174 s⁻¹. The kon in assay [1] turned out to be 230000 M⁻¹ s⁻¹; in assay [6] it was 10900 M⁻¹ s⁻¹. Also, the results for the “EC50 (read off the curve)” value in assay [4] and in assay [5] were around 500 pM and around 300 pM, respectively.

B3: anti-CD24 control antibody (variable region SEQ ID NO: 9 and SEQ ID NO: 13, constant region of human IgG1 SEQ ID NO: 85 and SEQ ID NO: 86) (antibody, V domains shown)
VH: EVQLQESGPGLVKPSQTLSLTCTVSGYSITSGYTWHWIRQFPGNKLEWIGHIQYTGNTKYNPSLESRITISRDTSKNQFSLKLSSVTAADTATYYCARGSTNSNDYWGQGTLVTVSS
VL: DIVMTQSPSSLAVSLGERATINCKSSQSLLYSNDQKNYLAWYQQKPGQSPKLLIYWASTRESGVPDRFSGSGSGTDFTLTISSLQAEDVAVYYCQQYFIYPLTFGGGTKLELKR
Consider B3, for which the “E1 Mean PE-A” value in assay [7] is 4.45e+06.

B4: Positive control 2 (variable region SEQ ID NO: 41) (VHH)
VHH: EVQLVESGGGLVQPGGSLRLSCAASGSRLDYYAVAWFRQAPGKEREEVSCITYSGGSTNYAESVKGRFTISRDNSKNTLYLQMNSLRAEDTAVYYCTTEPYGSSCPLSGYDTWGQGTLVTVSS
notes: not shown: it was loaded on an AHC (anti-human Fc) sensor
For B4, in assay [1], the Kd was determined as 1610 pM, the koff stood at 0.000427 s⁻¹ and the kon turned out to be 266000 M⁻¹ s⁻¹. For the same molecule, the “EC50 (read off the curve)” value in assay [2] was around 50 pM.

What is called Kd is a measure of binding affinity in units of concentration. Read a low Kd as tighter binding. The term koff denotes the first-order rate constant of dissociation. Read a low koff as a long-lived complex. The kon is the second-order rate constant of association. Low readings indicate slow association, high ones fast association. As a reminder, the EC50 (read off the curve) is the concentration at which the effect is half-maximal. Read a high EC50 (read off the curve) as weaker potency.
